Consider 1 substance from PMC11481497.

What is called Kd is the concentration at which binding is half-saturated. By stoichiometry N is commonly meant the number of molecules, sites or subunits per partner or assembly.

This test has as its target His-CaDpb3 (Dpb3 subunit of DNA polymerase epsilon of C. albicans, wild type) (C. albicans). The experiment in a line: ITC; 20 µM wild-type or mutant CaDpb3 in the sample cell, 100 µM CaDpb4 injected from the syringe (25 injections of 1.5 µL); 25°C; 20 mM HEPES pH 7.4, 150 mM NaCl; one-site binding model. Background: In ITC the heat of successive injections is recorded.

Substance “His-CaDpb4 (Dpb4 subunit of DNA polymerase epsilon of C. albicans, wild type) (from UniProt A0A1D8PG40 1-261) (natural protein)” returned a Kd of 55 µM and a stoichiometry N of 1.
